± gives the uncertainty stated by the source.

This data set can be described thus: amyloid nucleation score (Sup35N fusion, yeast selection) (log enrichment); library NNK1; higher = more nucleation; inactive = no reads after selection. An outline of the steps:
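Sup35N was fused to peptides of 20 random codons and expressed in psi-negative yeast, which were induced with 100 μM copper sulfate for 24 hours and then grown on medium lacking adenine and uracil for 7 days at 30°C. Plasmid inserts from input and output were sequenced on Illumina. The nucleation score is the DiMSum log enrichment of output over input reads, centred on the mode score of non-aggregating sequences. Sequences with under 100 input reads were left out, and random libraries had three technical output replicates.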
The substance FFCMKGKILIINALLEIDVG yielded an amyloid nucleation score of 0.079 ± 0.34.

FFENWVYYHKCSHCYTAQYT yielded an amyloid nucleation score of -0.559 ± 0.35.

On to FFESEVSDKNFGSC, for which the amyloid nucleation score was -1.29 ± 2.4.

FFFIN returned an amyloid nucleation score of -0.391 ± 0.47.

In turn, FFFIQTSPLHAQYAISLVLR registered an amyloid nucleation score of -0.057 ± 0.52.

For the substance FFFYKPMNVEAIRDLHWPYS, the amyloid nucleation score turned out to be 6.229 ± 0.06.

In the case of FFGVTYREYTWS, the amyloid nucleation score entry was “inactive”.

In the case of FFIRIVCLWG, the amyloid nucleation score was 0.659 ± 0.42.

FFLNQMIILSLACIGEPGQG yielded an amyloid nucleation score of 5.08 ± 0.068.

FFNRNLMCVVLIVRT: the amyloid nucleation score was -0.388 ± 0.47.

Consider FFNYD, for which the amyloid nucleation score is -0.628 ± 0.8.

Consider FFQRVCK, for which the amyloid nucleation score worked out at 1.65 ± 0.31.

For FFRGFSWRVCSSFSSLVELW, the amyloid nucleation score entry is “inactive”.

On to FFRTSLCYDLVNSDEVDIIV, for which the amyloid nucleation score was 0.411 ± 0.51.

For FFTHCMWD, the amyloid nucleation score is -1.05 ± 1.1.

FFTKAGRPFGLTRDISVL returned an amyloid nucleation score of -0.23 ± 0.87.

As to FFWSYAYIVIRLVSTKCWY, the amyloid nucleation score was 0.011 ± 0.28.

The substance FFYMDKLLCAQSPVRIFR showed an amyloid nucleation score of 0.837 ± 0.84.

As for FGFLLHGDDDQEGIVTGRGG, the amyloid nucleation score is 0.384 ± 0.76.

For the substance FGIRVVSR, the amyloid nucleation score came out at 0.842 ± 0.73.

Substance FGLVREVFKM displayed an amyloid nucleation score of 0.171 ± 0.59.

Take FGMVGTCYRMDRWDVIAVSV: the amyloid nucleation score was found to be 0.44 ± 0.41.

The substance FGNSCSADSNRYQIKYTMIK registered an amyloid nucleation score of 0.155 ± 0.45.

FGSFVFPCYAQPELIPFNLY displayed an amyloid nucleation score of 0.119 ± 0.72.

The substance FGSMFVRLFFGSLNKYGMVK gave an amyloid nucleation score of -0.712 ± 0.92.

FGSQVFTDGHMCMQSGGTWC returned an amyloid nucleation score of 0.223 ± 0.34.

FGTGFSLCKFFCLAMRPSDV came in with an amyloid nucleation score of 5.25 ± 0.08.

As for FGTLCSGDRYVRR, the amyloid nucleation score is -0.611 ± 0.28.

Consider FGVRQVYINGNFLRCLGTKS, for which the amyloid nucleation score came out at 0.751 ± 0.93.

FGVTIPQVWVEC showed an amyloid nucleation score of -0.961 ± 1.7.

FGWLKPR registered an amyloid nucleation score of 0.994 ± 0.49.

In turn, FHDLTQSCVCGSM gave an amyloid nucleation score of 0.717 ± 0.49.

The substance FHFVGLSVTVVLLSFWGWNT gave an amyloid nucleation score of 0.78 ± 0.52.

As to FHGLSGMRYWTRFCMWSPAC, the amyloid nucleation score was determined as 1.36 ± 0.66.

With FHICDNRLDCSLIVVANSWK, the amyloid nucleation score stood at 2.65 ± 0.18.

Take FHKVLSMFMMIVLVVKTWTT: the amyloid nucleation score entry was “inactive”.

FHLPALTSSLPA came in with an amyloid nucleation score of 0.102 ± 0.35.

Consider FHLRSCIRFSYLMTDWQAFQ, for which the amyloid nucleation score amounted to 0.69 ± 1.

In turn, FHYYMSFSGDGI displayed an amyloid nucleation score of 0.724 ± 0.39.

The substance FICFYVVSYTIMSLLFDTLG yielded an amyloid nucleation score of 0.713 ± 0.92.

Consider FICGDLNCQQTSSFCFLDYS, for which the amyloid nucleation score was found to be 7.296 ± 0.051.

With FIGVLIRSVCQSGARIV, the amyloid nucleation score worked out at 0.514 ± 0.17.

Substance FINAYRMFWIGYCNLFSLFL displayed an amyloid nucleation score of 1.38 ± 0.52.

For FIQGLCMVFDVSYLRLS, the amyloid nucleation score worked out at 2.8 ± 0.15.

FIRSRMVWLCLMLISTIERG: the amyloid nucleation score worked out at 0.835 ± 0.39.

Substance FIRVGLVCVLKFRSVGEAWL came in with an amyloid nucleation score of -0.045 ± 0.9.

As to FITRRSLGCRFPKPKSLRIN, the amyloid nucleation score is -0.012 ± 0.4.

The substance FIVGTFLHENASLRFRIHKA yielded an amyloid nucleation score of -0.011 ± 0.35.

Substance FIWECGNIISVCMRIGYMKA returned an amyloid nucleation score of 1.23 ± 0.41.

With FKASIYDISQNT, the amyloid nucleation score is -0.459 ± 0.3.

Substance FKGHRHY displayed an amyloid nucleation score of 0.318 ± 0.55.

For FKIVKSCSMFST, the amyloid nucleation score is 0.761 ± 0.24.

Substance FKLIHAVNFVYLGYAFYAFF showed an amyloid nucleation score of 1.29 ± 0.38.

In turn, FKNCFDSNTAGICLNHLWKR registered an amyloid nucleation score of 1.25 ± 0.63.

For FKNLCRAVS, the amyloid nucleation score was determined as 0.059 ± 0.53.

With FKNVHFRNS, the amyloid nucleation score is -1.69 ± 1.3.

FKSGRDSGMRG yielded an amyloid nucleation score of -1.57 ± 1.1.

As for FKVTVRVGSTMSILL, the amyloid nucleation score was determined as 0.223 ± 0.42.

The substance FKYRVGDTSCMVCNVWYGGD came in with an amyloid nucleation score of 7.552 ± 0.057.

Substance FLALR gave an amyloid nucleation score of -0.249 ± 0.61.

Take FLAWRTLDEMVLCKRCDNAI: the amyloid nucleation score turned out to be 0.291 ± 1.

Take FLEWAPSLNKLHRF: the amyloid nucleation score turned out to be 0.768 ± 0.17.

As to FLFRRYCAEEGLVWMKIVDT, the amyloid nucleation score worked out at 0.864 ± 0.53.

With FLGMAHLCHEEGVRKLGGES, the amyloid nucleation score turned out to be 0.679 ± 0.64.

Consider FLGWICICPGQYRSAGPTAL, for which the amyloid nucleation score is -0.487 ± 0.43.

Turning to FLHHFQCKNTSN, the amyloid nucleation score entry is “inactive”.

For FLKNEHSYTGWCFSTWPVRY, the amyloid nucleation score stood at 1.95 ± 0.29.

FLLGRNFNLANSNFHSVICL: the amyloid nucleation score was found to be 0.24 ± 0.88.

Consider FLLWKGTIDIMRWHVFASN, for which the amyloid nucleation score is -0.847 ± 0.79.

In turn, FLMPCFMKVGFVREEPWWRR registered an amyloid nucleation score of 0.096 ± 0.78.

FLNCVSLVNLLRLFRVCLMP yielded an amyloid nucleation score of -0.765 ± 1.5.

With FLNLAFAVSRLGLCMWYVAF, the amyloid nucleation score stood at 0.319 ± 0.87.

The substance FLPQAAWCKLYLIKLLNPPL returned an amyloid nucleation score of 1.1 ± 0.98.

As to FLRKHHSIMMVFMRIQGLRM, the amyloid nucleation score is -1.72 ± 1.7.

Substance FLSEE yielded an amyloid nucleation score of -0.584 ± 0.44.

Substance FLSICVDSVKFVFGGVWTSQ showed an amyloid nucleation score of -0.882 ± 0.53.

For FLSIYDTIVDCWVALVLVRG, the amyloid nucleation score was -0.723 ± 0.91.

Regarding FLSRFLMVRTRSAASVSAYE, the amyloid nucleation score is -0.204 ± 0.39.

Substance FLSVFRL showed an amyloid nucleation score of -0.884 ± 1.1.

For the substance FLSVLNFVRIIEKEVGRNRN, the amyloid nucleation score was 1.79 ± 0.15.

Substance FLTTEYDDWVSSAFINCCGD showed an amyloid nucleation score of -0.475 ± 0.41.

FLVMREFMIGCVRAG yielded an amyloid nucleation score of 0.186 ± 0.97.

With FLVVETI, the amyloid nucleation score result was “inactive”.

For FMDDSSLFPSI, the amyloid nucleation score came to 0.569 ± 0.58.

The substance FMFLESRPSNCSTTPCKY displayed an amyloid nucleation score of -0.29 ± 0.6.

In turn, FMPFASKCGCPN showed an amyloid nucleation score of 0.595 ± 0.41.

In turn, FMPTKGGQSIIGLHPLLFML had an amyloid nucleation score of -0.577 ± 0.58.

On to FMSAV, for which the amyloid nucleation score came to 0.374 ± 1.2.

For FMYWSIHDTIVLTWHDGSSL, the amyloid nucleation score was -0.036 ± 0.65.

Turning to FNDHWSCRV, the amyloid nucleation score was -0.095 ± 0.48.

FNGRVDSARCPGVARARHLL came in with an amyloid nucleation score of -0.846 ± 2.4.

FNMIVSYAFVAFIVNIKVEI had an amyloid nucleation score of 1.99 ± 0.12.

In the case of FNQINQGCRGCKQRTLVPDI, the amyloid nucleation score amounted to 0.5 ± 0.67.

Take FNSTTTESLHAVAEGTMNPL: the amyloid nucleation score came out at 0.671 ± 0.54.

Regarding FNVRC, the amyloid nucleation score stood at 0.496 ± 0.36.

In the case of FNWLTTEFRW, the amyloid nucleation score is -0.037 ± 0.36.

For FNWSRNHGF, the amyloid nucleation score worked out at 0.013 ± 0.76.

FNYHACSNFSFSPDQPSFHC had an amyloid nucleation score of 0.553 ± 0.45.

Take FPDNVISIIDFR: the amyloid nucleation score is -0.235 ± 0.54.

For the substance FPEHVPVSVYVCYRGYGRRV, the amyloid nucleation score is -0.589 ± 0.61.

FPGLTFILAGMLCMTCKIRG yielded an amyloid nucleation score of 4.12 ± 0.13.

The substance FPMRSWCLEACRHCRQPTFS showed an amyloid nucleation score of -0.301 ± 1.4.

On to FPWTNLSDD, for which the amyloid nucleation score turned out to be 0.04 ± 0.36.

Take FPWVCIVVCERTS: the amyloid nucleation score worked out at 3.41 ± 0.17.

As to FQAGREKSCCAYEVGDGCLV, the amyloid nucleation score was -1.16 ± 2.4.

As to FQCVFH, the amyloid nucleation score was determined as 3.88 ± 0.062.

Regarding FQFESHW, the amyloid nucleation score stood at 1.85 ± 0.24.

Substance FQPIGSMWNYRSMYVYSTLF gave an amyloid nucleation score of -0.062 ± 0.57.

As for FQVCLVLSAHVRPQRYFKSW, the amyloid nucleation score is -0.429 ± 0.8.

Turning to FQVVFGYSFMNMATISCVYE, the amyloid nucleation score was 5.03 ± 0.054.

Regarding FRDMYCARNIACSFLLVVAC, the amyloid nucleation score came to 1.1 ± 0.19.

On to FREVMTGSNYRPTC, for which the amyloid nucleation score was 0.158 ± 0.64.

In turn, FRFELYRLPVSDSLMKDLQL registered an amyloid nucleation score of 0.998 ± 0.58.

The substance FRFLKEASKCKPVTVMSPSW showed an amyloid nucleation score of 0.123 ± 0.7.

The substance FRFRLGNFGLRFRGYPERII returned an amyloid nucleation score of 0.405 ± 0.3.

In turn, FRGEVYELEIKGKILSSVFV returned an amyloid nucleation score of 0.121 ± 0.24.

The substance FRGMGAS had an amyloid nucleation score of 0.617 ± 0.62.

The substance FRKLKTAYDFFHCRCPHSNA had an amyloid nucleation score of 0.373 ± 0.78.

For the substance FRQFCCV, the amyloid nucleation score entry was “inactive”.

Substance FRTATWNKIGAQDRVKSISV came in with an amyloid nucleation score of -1.06 ± 2.7.

The substance FRTHD registered an amyloid nucleation score of 0.351 ± 0.97.

The substance FRWNLQAWQEVSGAGQRAVV gave an amyloid nucleation score of -0.014 ± 0.76.

With FSCMRWM, the amyloid nucleation score is 0.73 ± 0.43.

Substance FSCVIGFPKHRNDTLVTERA registered an amyloid nucleation score of 6.65 ± 0.067.

For the substance FSDMDVTQPENKDWHLEE, the amyloid nucleation score turned out to be 1.23 ± 0.9.

Take FSHDRGYLIFQVIRGHHCFM: the amyloid nucleation score is 0.277 ± 0.57.

Substance FSHKRW showed an amyloid nucleation score of -0.479 ± 0.48.

With FSIAASASTLFDGFVIWRF, the amyloid nucleation score is 0.027 ± 0.5.

FSIRTFVIRFTLMEHLSLEL: the amyloid nucleation score is 0.266 ± 0.52.

Substance FSKFSAVVDDPVCWKRLIFL gave an amyloid nucleation score of -0.57 ± 0.53.

In turn, FSKLWSVWLRLCLKG had an amyloid nucleation score of 0.334 ± 0.52.

As for FSLDSRITANLTKWEEMLVQ, the amyloid nucleation score was -0.779 ± 0.41.

FSLVATGSYITLDSVLMDVL registered an amyloid nucleation score of 0.728 ± 0.44.

For FSLYAPSTPYSSMVRIRLSD, the amyloid nucleation score entry is “inactive”.

In the case of FSMTCYVWLITLAKMTRTFQ, the amyloid nucleation score is 0.159 ± 0.73.

For the substance FSMWRSWNNNYSLISHSTGH, the amyloid nucleation score was 0.367 ± 1.2.

On to FSNTCWNLKYHSNGAANFFV, for which the amyloid nucleation score came to 0.136 ± 0.96.

FSRDLLARGVDTPSVEFRSS: the amyloid nucleation score is -0.362 ± 0.72.

Turning to FSRKINVYG, the amyloid nucleation score is -0.396 ± 0.66.

The substance FSSFESCCRRYSSM came in with an amyloid nucleation score of 0.576 ± 0.93.

In turn, FSTFVGHYLSKMKWITVVNS yielded an amyloid nucleation score of 0.531 ± 0.36.
